Experimental data: US20100166704

What was measured:
GST-TIAR RRM2 = assay: EMSA; settings: SD ±5 nM, four experiments; relative Kd; n about 1.2
GST-TIA-1 RRM2 = assay: EMSA; settings: SD ±15 nM, four experiments; relative Kd; n about 1.1

WNV 3'(-) SL RNA (75 nt 3' terminal minus-strand)
Kd (GST-TIAR RRM2): 15 nM | Kd (GST-TIA-1 RRM2): 112 nM
